# Measurements: US20110021367A1 (INDIAN INSTITUTE OF SCIENCE, published 2011)
# B1: apo-RslA 1-108 (Zn2+ free, oxidized N-terminal domain of M. tuberculosis RslA), N-term His-tag (other)
# chain: MTMPLRGLGPPDDTGVREVSTGDDHHYAMWDAAYVLGALSAADRREFEAHLAGCPECRGAVTELCGVPALLSQLDRDEVAAISESAPTVVASGLSPELLPSLLAAVHR
# modifications: Zn2+ removed with H2O2 and TPEN; oxidized, one disulfide bond
# notes: range 1-108; Same polypeptide as holo-RslA; for SPR made on the chip by passing 10 mM H2O2 and 2 mM TPEN over immobilized RslA; also called Zn^2+ free RslA; oxidized RslA; not shown: N-terminal His-tag from pET-Duet1 MCS1
# B2: σ^L 1-177 (Mycobacterium tuberculosis sigma factor L, Rv0735), N-term His-tag (other)
# chain: MARVSGAAAAEAALMRALYDEHAAVLWRYALRLTGDAAQAEDVVQETLLRAWQHPEVIGDTARPARAWLFTVARNMIIDERRSARFRNVVGSTDQSGTPEQSTPDEVNAALDRLLIADALAQLSAEHRAVIQRSYYRGWSTAQIATDLGIAEGTVKSRLHYAVRALRLTLQELGVTR
# notes: range 1-177; also called SigL; Mtb σ^L; not shown: N-terminal His-tag from pET-Duet1 MCS1
# Columns and labels:
# [1] = target: the molecule itself; test: analytical gel filtration; dynamic light scattering
# [2] = target: B2; test: SPR (BIACORE 2000), immobilized RslA freed of Zn2+ with H2O2/TPEN, σ^L as analyte
# [3] = target: B1; test: as above
Binder,binding result [1],Kd [2] [nM],fold reduction in affinity against Zn2+ bound RslA [3] [fold]
B1,binds,~150,
B2,,,7
